Earlier results on 1 substance are cited in patent US20190275108A1, “COMPOSITIONS IN THE FORM OF AN INJECTABLE AQUEOUS SOLUTION COMPRISING AMYLIN, AN AMYLIN RECEPTOR AGONIST OR AN AMYLIN ANALOGUE AND A CO-POLYAMINO ACID” (ADOCIA, priority 2017, published 2019).

Where two headings read alike, the source gives them in different places.

“amylin: peptide of 37 amino acids, co-stored and co-secreted with insulin (KCNTATCATQRLANFLVHSSNNFGAILSSTNVGSNTY; Islet amyloid polypeptide; UniProt P10997 34-70, looked up)”: the “Time for which amylin is stable” value is recorded as “about fifteen” (acidic pH) and “less than a minute” (neutral pH).
